In patent US20240409637A1:
One block for each substance: values may come before it.

Legend:
[1] = target: human CD8 alpha and beta subunit on JRT3.T3/AP1-Luc/CD28/CD8AB/1G4AB clone 18 reporter T cells (human) (UniProt P01732); assay: cell-based or functional assay
[2] = target: human CD8 on cells (primary human CD8 positive T cells; T cells of mice expressing hCD8; human PBMC-derived lymphocytes) (human) (UniProt P01732); assay: cell-based or functional assay
human CD8 on cells (primary human CD8 positive T cells; T cells of mice expressing hCD8; human PBMC-derived lymphocytes) (human), sequence (P01732 22-235, chain 1 of 2): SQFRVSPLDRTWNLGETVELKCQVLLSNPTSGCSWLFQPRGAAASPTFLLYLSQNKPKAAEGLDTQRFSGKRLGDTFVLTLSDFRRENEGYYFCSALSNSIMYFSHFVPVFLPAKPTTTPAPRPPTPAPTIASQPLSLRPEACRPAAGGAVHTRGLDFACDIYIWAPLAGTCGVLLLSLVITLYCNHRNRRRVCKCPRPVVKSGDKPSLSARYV
human CD8 on cells (primary human CD8 positive T cells; T cells of mice expressing hCD8; human PBMC-derived lymphocytes) (human), sequence (chain, as listed by the source, chain 2 of 2): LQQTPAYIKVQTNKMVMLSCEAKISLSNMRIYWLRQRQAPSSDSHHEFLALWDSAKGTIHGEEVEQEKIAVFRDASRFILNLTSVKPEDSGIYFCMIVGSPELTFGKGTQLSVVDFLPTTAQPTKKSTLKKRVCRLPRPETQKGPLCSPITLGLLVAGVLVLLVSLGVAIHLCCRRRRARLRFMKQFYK

human CD8 alpha and beta subunit on JRT3.T3/AP1-Luc/CD28/CD8AB/1G4AB clone 18 reporter T cells (human), sequence (P01732 22-235, chain 1 of 2): as the sequence (P01732 22-235, chain 1 of 2) above
human CD8 alpha and beta subunit on JRT3.T3/AP1-Luc/CD28/CD8AB/1G4AB clone 18 reporter T cells (human), sequence (P10966 22-210, chain 2 of 2, further chain): as the sequence (chain, as listed by the source, chain 2 of 2) above

IC50 [M], reduction of AP1-luciferase activity in CD8 T cell/APC luciferase assay [1]: 1.61e-10 M
Reduction of T cell response at 100 nM [%], CD8 T cell/APC luciferase assay [1]: 97.9%
Substance: Clone RPA-T8 (commercially available anti-CD8 antibody)

Reduction of T cell response at 100 nM [%], CD8 T cell/APC luciferase assay [1]: 7.4%
Substance: Isotype 1 (antibody)

Reduction of T cell response at 100 nM [%], CD8 T cell/APC luciferase assay [1]: 6.2%
Substance: Isotype 2 (antibody)

Percent Inhibition of IFNγ Production, one-way MLR Reaction 1, 0.5 nM antibody [2]: 0.5%
Percent Inhibition of IFNγ Production, one-way MLR Reaction 1, 5 nM antibody [2]: 3.9%
Percent Inhibition of IFNγ Production, one-way MLR Reaction 1, 50 nM antibody [2]: -6.6%
Percent Inhibition of IFNγ Production, one-way MLR Reaction 2, 0.5 nM antibody [2]: 2.3%
Percent Inhibition of IFNγ Production, one-way MLR Reaction 2, 5 nM antibody [2]: 3.4%
Percent Inhibition of IFNγ Production, one-way MLR Reaction 2, 50 nM antibody [2]: 25.4%
Substance: isotype control antibody (irrelevant isotype matched antibody)
